This test concerns the target human PTH1R in transiently transfected COS-7 cell membranes (human) (UniProt Q03431). Briefly: radioligand binding.
Sequence of UniProt Q03431 (Q03431 27-593): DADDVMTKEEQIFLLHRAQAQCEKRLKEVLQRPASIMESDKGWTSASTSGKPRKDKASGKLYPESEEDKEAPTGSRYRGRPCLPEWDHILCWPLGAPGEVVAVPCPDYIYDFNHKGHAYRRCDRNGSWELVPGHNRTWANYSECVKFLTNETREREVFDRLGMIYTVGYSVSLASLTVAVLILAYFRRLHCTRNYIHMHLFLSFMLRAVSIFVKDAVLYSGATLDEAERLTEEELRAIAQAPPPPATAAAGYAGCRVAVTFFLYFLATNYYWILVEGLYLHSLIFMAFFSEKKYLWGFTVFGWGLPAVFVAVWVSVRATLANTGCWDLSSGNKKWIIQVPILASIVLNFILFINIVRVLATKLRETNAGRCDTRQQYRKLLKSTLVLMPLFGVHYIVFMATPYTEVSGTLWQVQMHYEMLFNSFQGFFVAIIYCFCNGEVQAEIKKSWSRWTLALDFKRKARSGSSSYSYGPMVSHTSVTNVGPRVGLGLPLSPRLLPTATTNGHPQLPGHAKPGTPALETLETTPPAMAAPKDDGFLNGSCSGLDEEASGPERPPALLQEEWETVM

PTH(1–34)^H9A (peptide) yielded a concentration for half-maximal inhibition (IC50) of 13.7 nM.
